From paper PMC10487585, “Refolding Increases the Chaperone-like Activity of αH-Crystallin and Reduces Its Hydrodynamic Diameter to That of α-Crystallin” (International Journal of Molecular Sciences, 2023)

Tests used:
[1] = target: UV-damaged βL-crystallin (bovine (endogenous in steer lens))
[2] = target: the molecule itself; assay: dynamic light scattering; ZetaSizer S nano; protein 1 mg/mL in PBS (40 mM sodium phosphate, pH 7.0, 100 mM NaCl, 1 mM EDTA, 3 mM NaN3); native protein without urea, or after renaturation from urea
αB-crystallin = target: T1, αB-crystallin (bovine (endogenous in steer lens), UniProt P02510 1-175); assay: SEC; Sephacryl S300HR, 2.5 × 90 cm, 1.6 mL/min, calibrated with standard proteins; polypeptides of the preparations and fractions by SDS-PAGE; conditions: both partners purified
T1 construct: αB-crystallin (19.8 kDa), identified by mass on SDS-PAGE; source: purified from lenses of 6-month-old steers as a part of α-crystallin and HMWA
T1 sequence (looked up): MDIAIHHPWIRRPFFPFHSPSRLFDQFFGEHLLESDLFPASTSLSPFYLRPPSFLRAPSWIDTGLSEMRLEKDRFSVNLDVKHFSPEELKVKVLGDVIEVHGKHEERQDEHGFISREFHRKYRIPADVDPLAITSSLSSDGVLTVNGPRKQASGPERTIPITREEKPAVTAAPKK

refolded HMWA (from UniProt P02470 1-173; P02510 1-175) (complex)
abscissa point of intersection (reciprocal of AC0) of the relative aggregation rate of UV-damaged βL-crystallin against the chaperone/target protein ratio; points with accelerated aggregation left out (mol/mol (chaperone/target protein)) [1]: 0.38

αH-crystallin, high molecular weight aggregate (native) (from UniProt P02470 1-173; P02510 1-175) (complex)
abscissa point of intersection (reciprocal of AC0) of the relative aggregation rate of UV-damaged βL-crystallin against the chaperone/target protein ratio (mol/mol (chaperone/target protein)) [1]: 0.46 | initial adsorption capacity AC0 from the aggregation kinetics of UV-damaged βL-crystallin (37 °C, 360 nm): target protein/chaperone mol/mol ratio, counted on monomers (mol/mol (target protein/chaperone)) [1]: 2

B1: α-crystallin (native, from the lens cortex) (complex, bovine (endogenous in steer lens))
chain 1: MDIAIQHPWFKRTLGPFYPSRLFDQFFGEGLFEYDLLPFLSSTISPYYRQSLFRTVLDSGISEVRSDRDKFVIFLDVKHFSPEDLTVKVQEDFVEIHGKHNERQDDHGYISREFHRRYRLPSNVDQSALSCSLSADGMLTFSGPKIPSGVDAGHSERAIPVSREEKPSSAPSS
chain 2: MDIAIHHPWIRRPFFPFHSPSRLFDQFFGEHLLESDLFPASTSLSPFYLRPPSFLRAPSWIDTGLSEMRLEKDRFSVNLDVKHFSPEELKVKVLGDVIEVHGKHEERQDEHGFISREFHRKYRIPADVDPLAITSSLSSDGVLTVNGPRKQASGPERTIPITREEKPAVTAAPKK
notes: αA-crystallin, from steer lens; identified by mass on SDS-PAGE (20 kDa); αB-crystallin, from steer lens; identified by mass on SDS-PAGE (19.8 kDa); Polydisperse oligomer; by SDS-PAGE αA-crystallin 30%, αB-crystallin 60%, truncated α-crystallin 10% (a mixture of αA and αB fragments); also called authentic α-crystallin; native α-crystallin; source: purified from lenses of 6-month-old steers (gel …)
binding result [2]: binds

B2: αA-crystallin (natural protein, bovine (endogenous in steer lens), UniProt P02470 1-173, looked up)
chain: MDIAIQHPWFKRTLGPFYPSRLFDQFFGEGLFEYDLLPFLSSTISPYYRQSLFRTVLDSGISEVRSDRDKFVIFLDVKHFSPEDLTVKVQEDFVEIHGKHNERQDDHGYISREFHRRYRLPSNVDQSALSCSLSADGMLTFSGPKIPSGVDAGHSERAIPVSREEKPSSAPSS
notes: αA-crystallin (20 kDa), identified by mass on SDS-PAGE; source: purified from lenses of 6-month-old steers as a part of α-crystallin and HMWA
binding result (αB-crystallin): binds

B3: renatured α-crystallin (complex, bovine (endogenous in steer lens))
chain 1: MDIAIQHPWFKRTLGPFYPSRLFDQFFGEGLFEYDLLPFLSSTISPYYRQSLFRTVLDSGISEVRSDRDKFVIFLDVKHFSPEDLTVKVQEDFVEIHGKHNERQDDHGYISREFHRRYRLPSNVDQSALSCSLSADGMLTFSGPKIPSGVDAGHSERAIPVSREEKPSSAPSS
chain 2: MDIAIHHPWIRRPFFPFHSPSRLFDQFFGEHLLESDLFPASTSLSPFYLRPPSFLRAPSWIDTGLSEMRLEKDRFSVNLDVKHFSPEELKVKVLGDVIEVHGKHEERQDEHGFISREFHRKYRIPADVDPLAITSSLSSDGVLTVNGPRKQASGPERTIPITREEKPAVTAAPKK
notes: αA-crystallin, from steer lens; as in m1; αB-crystallin, from steer lens; Same polypeptides as m1, reassembled from monomers after urea
binding result [2]: binds
